From the Human Domainome abundance scans (Beltran et al. 2025)

B1: Zinc finger homeobox protein 3, residues 2643 to 2698; numbered along this chain, Q15911 (parent)
chain: RLRTTITPEQLEILYQKYLLDSNPTRKMLDHIAHEVGLKKRVVQVWFQNTRARERK

Variants of: B1
Assay: abundance fitness (aPCA) (normalised: wild type 0, dead -1); higher = more abundant; growth selection in yeast, the domain comes from the species named
Conditions: Homo sapiens

Abundance fitness of substitutions, site by site:
V43: H -0.973 | I -0.127 | L -0.485 | M -0.889 | N -0.64 | P -0.739 | Q -1 | R -1.03 | S -0.821 | T -0.548 | W -1.07 | Y -0.807
Q44: A 0 | C -0.193 | D 0.481 | E 0.283 | G 0.023 | H -0.038 | I -0.286 | K -0.236 | L -0.347 | M -0.164 | P -0.723 | R -0.331 | S -0.044 | T -0.209 | V -0.179 | W -0.669 | Y -0.114
V45: A -0.365 | C -0.329 | E 0.452 | F -0.028 | G -0.213 | H -0.001 | I 0.158 | K -0.399 | L 0.122 | M -0.005 | N -0.489 | P -0.764 | Q -0.016 | R -0.561 | S -0.359 | T -0.24 | W -0.317 | Y -0.263
W46: A -0.482 | D -0.815 | E -1.08 | F -0.462 | G -0.792 | H -0.897 | I -1.03 | L -0.758 | M -0.956 | N -0.902 | P -0.891 | Q -0.829 | R -0.678 | S -0.867 | T -0.865 | Y -0.261
F47: A -0.904 | C -0.945 | D -0.833 | E -0.736 | H -1.09 | I -1.01 | K -0.812 | L -0.639 | M -0.522 | N -0.835 | P -1.04 | Q -0.887 | R -0.757 | S -0.946 | T -0.997 | V -0.902 | W -0.106 | Y -0.388
Q48: A 0.122 | C -0.189 | D 0.505 | E 0.404 | F -0.802 | G -0.164 | H -0.108 | I -0.687 | K 0.096 | L -0.268 | N -0.21 | P -0.615 | R -0.204 | T 0.028 | V -0.147 | W -0.217 | Y -0.089
N49: A -0.2 | C -0.496 | D 0.172 | E 0.406 | F -0.531 | G -0.234 | H -0.412 | I -0.267 | K 0.011 | L -0.334 | M -0.331 | P -0.778 | Q -0.168 | R -0.267 | S -0.029 | T 0.04 | V -0.229 | W -0.68
T50: A 0.056 | C -0.078 | D -0.731 | E 0.342 | F -0.322 | G -0.549 | H -0.11 | I -0.247 | K -0.091 | L -0.177 | M 0.092 | N -0.572 | P -0.6 | Q 0.243 | R -0.037 | S -0.202 | W -0.156 | Y -0.048
R51: A 0.13 | C -0.044 | D -0.474 | E -0.163 | H 0.164 | I -0.286 | K 0.112 | L 0.056 | M 0.098 | P -0.812 | Q 0.229 | S 0.024 | T -0.305 | V -0.155 | W -0.135 | Y 0.073
A52: C -0.209 | D 0.244 | E 0.291 | F -0.428 | G -0.037 | I -0.639 | K 0.035 | L -0.317 | M -0.138 | N 0.062 | P -0.598 | Q 0.21 | S -0.021 | T -0.419 | V -0.349 | W -0.335 | Y -0.221
R53: A 0.092 | C 0.052 | D 0.31 | E 0.288 | F 0.239 | G 0.126 | H -0.258 | K -0.045 | L -0.006 | M -0.132 | N 0.172 | P -0.266 | S 0.133 | T 0.029 | V 0.013 | Y -0.327
E54: A -0.478 | C -0.306 | D 0.014 | F -0.167 | G -0.305 | H -0.229 | I -0.197 | L -0.2 | M -0.177 | N -0.531 | P -0.38 | Q -0.495 | R -0.701 | S -0.497 | T -0.361 | V -0.39 | W -0.512 | Y -0.438
R55: A 0.239 | C 0.263 | E 0.255 | F 0.004 | H 0.001 | I 0.142 | K 0.496 | M 0.483 | N 0.462 | P 0.105 | Q 0.216 | S 0.347 | T 0.479 | V 0.282 | W 0.017 | Y 0.113
K56: A 0.034 | E 0.466 | G 0.001 | H -0.17 | L -0.527 | M -0.204 | N -0.07 | P -0.225 | Q 0.032 | R -0.35 | S 0.262 | T 0.01 | V -0.073 | W -0.314 | Y -0.54
